Measurements from patent publication EP4285935A1 (Emergence Therapeutics AG, dated 2023).

Legend:
[1] = target: T1, N-terminal Flag-tagged human Nectin-4 on transfected MDA-MB231 cells (human, UniProt Q96NY8 32-510); assay: flow cytometry on MDA-MB231 cells transfected with N-terminal Flag-tagged Nectin-4, dose range 0.3 ng/mL - 5 µg/mL (FIG. 1)
T1 construct: whole, on cells; also called PVRL4; Flag-tagged Nectin-4; not shown: N-terminal Flag tag from vector p3XFLR4.C1
T1 sequence (looked up): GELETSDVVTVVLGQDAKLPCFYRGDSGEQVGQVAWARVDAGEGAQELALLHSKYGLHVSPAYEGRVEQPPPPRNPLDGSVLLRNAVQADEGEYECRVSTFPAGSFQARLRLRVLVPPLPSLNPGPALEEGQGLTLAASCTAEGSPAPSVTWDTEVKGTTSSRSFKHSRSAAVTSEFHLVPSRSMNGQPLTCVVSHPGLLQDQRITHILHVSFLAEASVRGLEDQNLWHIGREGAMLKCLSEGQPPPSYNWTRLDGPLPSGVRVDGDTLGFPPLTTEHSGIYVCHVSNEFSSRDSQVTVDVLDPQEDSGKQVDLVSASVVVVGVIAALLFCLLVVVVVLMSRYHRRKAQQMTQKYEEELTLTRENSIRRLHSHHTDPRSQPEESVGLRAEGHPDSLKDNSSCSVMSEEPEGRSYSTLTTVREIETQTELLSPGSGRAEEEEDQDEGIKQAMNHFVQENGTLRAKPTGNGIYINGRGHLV

human Nectin-4 on cells = target: T2, human Nectin-4 on cells (human, UniProt Q96NY8 32-510); assay: flow cytometry on normal differentiated human keratinocytes (NHEK), dose range 8 pM - 33 nM (FIG. 15); Ch-5A12.2 is the reference of the comparison
T2 construct: whole, on cells; also called CHO cells transfected with human Nectin-4 cDNA; Nectin-4 expressed by normal differentiated human keratinocytes (NHEK)
T2 sequence (looked up): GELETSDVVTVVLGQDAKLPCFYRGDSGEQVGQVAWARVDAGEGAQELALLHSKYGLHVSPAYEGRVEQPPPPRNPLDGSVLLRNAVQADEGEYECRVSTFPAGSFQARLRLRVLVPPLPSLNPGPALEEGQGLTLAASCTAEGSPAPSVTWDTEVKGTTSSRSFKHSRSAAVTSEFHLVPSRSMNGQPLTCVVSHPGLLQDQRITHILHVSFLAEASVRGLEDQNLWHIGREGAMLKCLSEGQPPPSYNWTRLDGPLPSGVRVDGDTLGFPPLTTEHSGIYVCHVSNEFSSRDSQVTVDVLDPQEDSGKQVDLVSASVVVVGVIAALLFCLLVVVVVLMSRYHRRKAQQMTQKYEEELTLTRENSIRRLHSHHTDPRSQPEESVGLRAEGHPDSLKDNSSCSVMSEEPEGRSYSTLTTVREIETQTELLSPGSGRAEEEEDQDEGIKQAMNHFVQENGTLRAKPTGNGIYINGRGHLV

- binding result [1]: binds
- binding result (human Nectin-4 on cells): binds
B1: Ch-5A12.2 (antibody, V domains shown)
VH: QIQLQQSGAELVKPGASVTLSCKTSGFTFNSMYISWLKQKPGQSLEWIAWIYAGTGGTRFNQKFTGKVQLTVDTSSSTAYMQFSSLTTDDSAIYYCAIRSGFVPMDYWGQGTSVTVSS
VL: SIVMTQTPKFLLVSAGDRVTITCKASQSVSNDVAWYQQKPGQSPKLLIYYASNRYTGVPDRFTGSGYGTDFTFTISTVQAEDLAVYFCQQDYSSPWTFGGGTKLEIK
notes: also called 5A12.2 mAb; Ch-5A12.2 mAb
